These are literature values, as cited in article PMC10889394.

For orientation: Ki means the equilibrium dissociation constant of an inhibitor or competing ligand from its target.

One series addresses TIMP-2 (Homo sapiens) (UniProt P16035).
Series [1] concerns the target cystatin E (Homo sapiens) (UniProt Q15828).
In series [2] the target is recombinant hirudin variant 1 (Hirudo medicinalis) (UniProt P01050).
Series [3] has as its target SFTI-1 (Helianthus annuus) (UniProt Q4GWU5).
For series [4], the target named is SFTI-TCTR-N12N14 (synthetic construct).

Chain of β-trypsin (P00760 149-246): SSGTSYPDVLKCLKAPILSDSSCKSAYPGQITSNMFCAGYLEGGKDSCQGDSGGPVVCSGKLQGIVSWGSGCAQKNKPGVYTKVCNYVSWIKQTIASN
Chain of TIMP-2 (Homo sapiens) (P16035 27-220): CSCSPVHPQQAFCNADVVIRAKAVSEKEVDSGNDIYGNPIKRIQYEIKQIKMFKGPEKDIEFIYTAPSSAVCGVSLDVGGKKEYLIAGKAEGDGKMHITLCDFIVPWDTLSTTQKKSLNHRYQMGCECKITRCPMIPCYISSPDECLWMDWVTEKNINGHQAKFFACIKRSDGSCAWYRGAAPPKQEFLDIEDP
Chain of cystatin E (Homo sapiens) (Q15828 29-149): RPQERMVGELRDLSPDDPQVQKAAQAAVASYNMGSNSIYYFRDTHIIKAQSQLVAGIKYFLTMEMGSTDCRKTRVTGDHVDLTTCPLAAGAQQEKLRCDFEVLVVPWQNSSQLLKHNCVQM

For “MMP-14 catalytic domain (from UniProt P50281)”, the Ki in the series with TIMP-2 (Homo sapiens) is 0.104 nM. For legumain (from UniProt Q99538), the inhibition constant Ki in series [1] is 0.011 nM. For the substance thrombin (from UniProt P00734), the Ki in series [2] was 0.00018 nM. As for β-trypsin (from UniProt P00760), the Ki is 0.017 nM in series [3] and 0.7 nM in series [4].
